Measured values as given in article PMC3627919, “Novel Split-Luciferase-Based Genetically Encoded Biosensors for Noninvasive Visualization of Rho GTPases” (PLoS ONE, 2013).

Target: T1, Nfluc416-WASP (human, UniProt P42768 220-288)
T1 sequence (looked up): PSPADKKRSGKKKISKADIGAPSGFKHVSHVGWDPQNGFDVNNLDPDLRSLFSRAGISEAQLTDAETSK
Assay: split reporter (BiFC, NanoBiT); bimolecular luminescence complementation (split firefly luciferase) in living HEK 293 cells, 24 h after transient cotransfection of the pair (50 ng/well) with pRL-tk; D-luciferin 150 ug/ml; IVIS CCD camera; ratio FL at 600 nm to RL at 500 nm; wild-type pairs also with co-expressed GEF or GAP catalytic domains
Details: partners not purified

luminescence signal, fold of the active mutant over the wild type: 2.77 fold
reconstituted luminescence (FL/RL), fold over CDC42 F37A: 14.3 fold
reconstituted luminescence (FL/RL), fold over CDC42 T17N: 5.6 fold
reconstituted luminescence (FL/RL), fold over CDC42 WT: 2.7 fold
B1: Cfluc398-CDC42(G12V) (natural protein)
chain: not shown
